Laboratory results from patent US20100047170.

Legend:
[1] = system: DQ collagen, type IV from human placenta, fluorescein conjugate (Invitrogen)
[2] = target: DQ Bovine Serum Albumin, fluorescent quenched (UniProt P02769)
[3] = target: DQ collagen, type I from bovine skin, fluorescein conjugate (Invitrogen) (UniProt P02453)
[4] = system: DQ Gelatin from pig skin, fluorescein conjugate (Invitrogen)

Measured: hydrolysis of FITC-quenched protein (fluorescence increase)

DQ collagen, type I from bovine skin, fluorescein conjugate (Invitrogen), sequence (P02453 162-1217, chain 1 of 2): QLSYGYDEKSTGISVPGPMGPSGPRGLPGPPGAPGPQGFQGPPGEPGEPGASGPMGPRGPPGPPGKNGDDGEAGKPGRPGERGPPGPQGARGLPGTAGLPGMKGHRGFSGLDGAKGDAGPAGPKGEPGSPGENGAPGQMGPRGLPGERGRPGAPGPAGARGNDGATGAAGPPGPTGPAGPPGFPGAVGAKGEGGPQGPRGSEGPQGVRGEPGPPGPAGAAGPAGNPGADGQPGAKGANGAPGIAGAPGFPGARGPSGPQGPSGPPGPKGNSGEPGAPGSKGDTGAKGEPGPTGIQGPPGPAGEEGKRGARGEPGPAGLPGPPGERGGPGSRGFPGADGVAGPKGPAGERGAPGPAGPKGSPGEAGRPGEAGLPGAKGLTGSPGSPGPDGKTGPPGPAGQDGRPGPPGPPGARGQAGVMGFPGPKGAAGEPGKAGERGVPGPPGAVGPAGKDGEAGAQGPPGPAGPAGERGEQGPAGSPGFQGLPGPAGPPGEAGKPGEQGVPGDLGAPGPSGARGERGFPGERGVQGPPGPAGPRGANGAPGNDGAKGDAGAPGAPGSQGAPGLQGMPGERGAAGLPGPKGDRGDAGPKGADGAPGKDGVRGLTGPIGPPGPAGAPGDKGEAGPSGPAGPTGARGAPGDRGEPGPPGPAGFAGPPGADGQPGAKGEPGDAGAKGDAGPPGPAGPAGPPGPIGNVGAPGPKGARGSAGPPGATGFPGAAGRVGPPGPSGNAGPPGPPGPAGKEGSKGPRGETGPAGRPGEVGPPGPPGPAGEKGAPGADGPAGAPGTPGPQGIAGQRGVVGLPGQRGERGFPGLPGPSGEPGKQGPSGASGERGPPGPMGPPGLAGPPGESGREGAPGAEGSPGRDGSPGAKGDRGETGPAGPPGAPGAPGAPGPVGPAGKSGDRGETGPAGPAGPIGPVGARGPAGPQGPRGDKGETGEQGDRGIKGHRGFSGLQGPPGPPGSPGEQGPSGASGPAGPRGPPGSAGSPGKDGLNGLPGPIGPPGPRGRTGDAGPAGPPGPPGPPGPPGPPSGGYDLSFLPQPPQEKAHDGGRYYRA
DQ collagen, type I from bovine skin, fluorescein conjugate (Invitrogen), sequence (P02453 other isoform, or with tags, fused parts or gaps, chain 2 of 2): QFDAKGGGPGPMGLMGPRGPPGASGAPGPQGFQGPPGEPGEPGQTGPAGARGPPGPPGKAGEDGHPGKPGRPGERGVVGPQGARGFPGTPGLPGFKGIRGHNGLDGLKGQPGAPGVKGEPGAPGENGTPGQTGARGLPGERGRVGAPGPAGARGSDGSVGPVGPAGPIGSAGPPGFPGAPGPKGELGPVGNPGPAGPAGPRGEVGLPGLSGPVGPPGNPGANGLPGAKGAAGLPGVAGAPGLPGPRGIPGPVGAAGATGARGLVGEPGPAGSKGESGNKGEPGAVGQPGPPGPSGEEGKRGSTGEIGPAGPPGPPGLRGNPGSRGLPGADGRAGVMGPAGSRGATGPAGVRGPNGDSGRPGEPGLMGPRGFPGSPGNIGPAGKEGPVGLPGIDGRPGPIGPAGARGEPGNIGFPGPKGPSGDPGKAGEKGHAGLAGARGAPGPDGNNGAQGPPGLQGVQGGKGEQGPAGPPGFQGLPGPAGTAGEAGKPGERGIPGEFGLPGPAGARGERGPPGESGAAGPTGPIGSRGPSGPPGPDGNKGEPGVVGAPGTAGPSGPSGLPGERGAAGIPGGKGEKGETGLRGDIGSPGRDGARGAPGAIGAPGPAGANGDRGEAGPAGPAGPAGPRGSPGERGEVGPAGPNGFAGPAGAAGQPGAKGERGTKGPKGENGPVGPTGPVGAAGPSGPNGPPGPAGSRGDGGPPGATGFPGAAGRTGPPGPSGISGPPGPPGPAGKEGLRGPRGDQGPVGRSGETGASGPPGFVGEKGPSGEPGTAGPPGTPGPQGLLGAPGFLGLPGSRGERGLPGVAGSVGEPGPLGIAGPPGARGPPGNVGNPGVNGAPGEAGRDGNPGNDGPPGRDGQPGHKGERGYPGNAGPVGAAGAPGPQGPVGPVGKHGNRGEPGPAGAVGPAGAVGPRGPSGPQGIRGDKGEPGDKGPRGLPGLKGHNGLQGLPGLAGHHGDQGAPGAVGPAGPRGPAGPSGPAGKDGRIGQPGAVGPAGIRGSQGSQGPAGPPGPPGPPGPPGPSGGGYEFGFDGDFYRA
DQ Bovine Serum Albumin, fluorescent quenched, sequence (P02769 25-607): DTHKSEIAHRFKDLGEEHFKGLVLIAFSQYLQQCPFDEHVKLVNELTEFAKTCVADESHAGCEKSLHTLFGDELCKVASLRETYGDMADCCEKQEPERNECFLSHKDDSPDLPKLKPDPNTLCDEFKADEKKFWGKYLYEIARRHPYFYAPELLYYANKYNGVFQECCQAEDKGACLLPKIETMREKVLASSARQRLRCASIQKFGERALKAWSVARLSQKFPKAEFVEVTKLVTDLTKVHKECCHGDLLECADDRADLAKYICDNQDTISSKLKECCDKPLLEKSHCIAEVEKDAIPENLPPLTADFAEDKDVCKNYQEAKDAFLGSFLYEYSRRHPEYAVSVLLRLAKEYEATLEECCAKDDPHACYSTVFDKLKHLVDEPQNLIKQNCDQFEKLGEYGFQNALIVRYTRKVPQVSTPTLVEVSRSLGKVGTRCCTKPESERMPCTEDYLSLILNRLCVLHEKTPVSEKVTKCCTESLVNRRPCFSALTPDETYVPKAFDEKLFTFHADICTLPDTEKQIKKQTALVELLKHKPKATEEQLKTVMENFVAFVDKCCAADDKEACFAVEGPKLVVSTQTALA

His tagged extra cellular domain of Prostate Specific Membrane Antigen (PSMA), purified from S2 cells
no digestion of any of the proteins: all assays above
